Here are results for two substances from US8753698B2, “Anti-hypertensive functional food products” (Globus Egg Sciences B.V., priority 2004, dated 2014).

Experiment [1] has as its target Angiotensin-I Converting Enzyme (ACE) (Homo sapiens, UniProt P12821). The experiment can be described thus: Determination of ACE inhibitory activity of hydrolysates in a microtiter plate (Hip-His-Leu substrate). The experiment is classed as biochemical. The settings on record: no digestion simulation, in %. As to the method: ACE inhibitory activity can be measured in vitro using a spectrophotometry based assay. The assay is based on the liberation of hippuric acid from Hip-His-Leu substrate catalyzed by ACE.
Calculation of Ace Inhibition:
[formula] 2.4 Further (Optimized) Hydrolysis of Ovomucin with Alcalase Protocol for the DH Determination by TNBS Method Solutions: • 0.21 M Sodium phosphate buffer pH8.2 • 0.21 M NaH2PO4.H2O (25 ml solution) • 0.21 M Na2HPO4.2H2O (500 ml solution) • mix solutions to pH 8.2 • 0.05% TNBS • Dilute TNBS stock (5% solution) to 0.05% in MQ cover reagent tube with aluminium foil and store in dark place • 1% SDS solution • Leucine standard (stock 3 mM Leucine) • Dissolve Leucine in 1% SDS solution. Dilute the stock solution 20×, 10×, 4× en 2× with 1% SDS for analysis • Blank • Dilute non-hydrolysed sample in 1% SDS to a protein concentration of 0.5 mg/ml • Samples • Dilute hydrolysed protein in 1% SDS to a concentration of 0.5 mg/ml in duplo Analysis: • Pipet 15 μl sample (Leucine standard or sample) in microwell. Measure each dilution in twofold in plate (Costar, non-binding plate) • Add 45 μl 0.21 M sodium phosphate buffer pH 8.2 • Add 45 μl 0.05% TNBS. Cover plate with aluminium foil. Incubate plate for 60 minutes in a 50° C. stove. • After incubation add 90 μl 0.1 N HCl • Measure absorption at 340 nm (microplate reader) Calculation of degree of hydrolysis (DH): • Make calibration line of Leucine standard. This calibration line is used to convert absorption values of samples to NH2-equivalents.

A further experiment has as its system SHR rats. The experiment can be described thus: Acute oral treatment of anaesthetized SHR, blood pressure. The experiment is classed as in vivo, rat. The settings on record: single oral dose 1000 mg/kg, percentage change from baseline. As to the method:
(§1) This study was performed to establish the effects of acute oral treatment of anaesthetized SHR with lysozym/alcalase on blood pressure and plasma ACE activity.
Rats: SHR rats (382-440 g) were purchased via Harlan, Horst, The Netherlands from Harlan, Oxon, United Kingdom.
(§2) Surgery: At the day of the experiment, rats were anaesthetized and the carotid artery was cannulated for measurement of blood pressure. In addition to that, the jugular vein was cannulated to allow blood sampling for measurement of plasma ACE activity.
(§3) Protocol: At timepoint t=0, rats were administered the study drugs by means of oral gavage using a gastric tube. Blood samples were drawn immediately prior to gavage at t=0, as well as at t=0.5, t=1, t=2, t=3, t=4, t=5 and t=6 hr thereafter. Blood pressure was recorded (mean value every 10 min) throughout the 6 hr study period;
(§4) Study drugs: Rats were randomly administered either lysozym/alcalase or lysozym (both 1000 mg/kg; dissolved in 1 ml drinking water), or water only.

The target of another experiment is T1, plasma ACE activity (Rattus norvegicus, UniProt P47820).
T1 construct: effects of acute oral treatment of anaesthetized SHR with lysozym/alcalase on blood pressure and plasma ACE activity; from tissue; host or cells: blood plasma of SHR rats
T1 sequence (P47820 36-1313): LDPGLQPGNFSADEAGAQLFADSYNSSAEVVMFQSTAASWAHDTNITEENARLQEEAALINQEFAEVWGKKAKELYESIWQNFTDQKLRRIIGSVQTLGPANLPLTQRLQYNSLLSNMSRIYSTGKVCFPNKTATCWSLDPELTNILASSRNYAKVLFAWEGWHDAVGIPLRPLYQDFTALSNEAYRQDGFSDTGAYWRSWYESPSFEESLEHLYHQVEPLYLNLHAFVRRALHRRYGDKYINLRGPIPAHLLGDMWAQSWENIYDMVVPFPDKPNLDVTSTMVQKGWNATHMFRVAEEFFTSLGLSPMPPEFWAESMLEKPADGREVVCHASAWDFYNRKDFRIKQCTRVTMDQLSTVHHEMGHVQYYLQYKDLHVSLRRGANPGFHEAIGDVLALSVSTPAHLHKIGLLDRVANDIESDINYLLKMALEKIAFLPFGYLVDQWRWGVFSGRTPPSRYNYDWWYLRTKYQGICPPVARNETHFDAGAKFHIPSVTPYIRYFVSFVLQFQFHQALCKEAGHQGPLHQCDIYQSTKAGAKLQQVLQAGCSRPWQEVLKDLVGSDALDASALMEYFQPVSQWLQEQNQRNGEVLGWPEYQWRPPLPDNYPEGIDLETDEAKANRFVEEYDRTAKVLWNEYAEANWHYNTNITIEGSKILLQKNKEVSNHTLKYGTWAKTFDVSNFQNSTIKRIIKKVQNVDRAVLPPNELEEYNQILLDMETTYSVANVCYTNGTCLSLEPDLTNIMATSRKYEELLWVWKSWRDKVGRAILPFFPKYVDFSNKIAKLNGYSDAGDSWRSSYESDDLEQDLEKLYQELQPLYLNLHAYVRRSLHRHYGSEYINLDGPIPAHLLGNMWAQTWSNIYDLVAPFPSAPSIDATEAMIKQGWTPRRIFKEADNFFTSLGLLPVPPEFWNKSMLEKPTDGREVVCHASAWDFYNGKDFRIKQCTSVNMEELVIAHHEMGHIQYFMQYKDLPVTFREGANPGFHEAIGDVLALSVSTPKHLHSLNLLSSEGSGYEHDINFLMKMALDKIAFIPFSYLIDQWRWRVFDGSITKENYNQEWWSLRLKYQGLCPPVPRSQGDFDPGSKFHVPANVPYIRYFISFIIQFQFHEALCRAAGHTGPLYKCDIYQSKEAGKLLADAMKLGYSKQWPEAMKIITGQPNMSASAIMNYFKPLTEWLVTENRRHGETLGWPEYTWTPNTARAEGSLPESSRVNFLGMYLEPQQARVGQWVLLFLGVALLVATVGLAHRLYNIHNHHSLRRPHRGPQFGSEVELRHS
The experiment can be described thus: Acute oral treatment of anaesthetized SHR, plasma ACE activity. The experiment is classed as in vivo. The note with it: single oral dose 1000 mg/kg. As to the method:
as §1, §2, §3, §4

Angiotensin-I Converting Enzyme (ACE), sequence (P12821 30-1306, species assumed): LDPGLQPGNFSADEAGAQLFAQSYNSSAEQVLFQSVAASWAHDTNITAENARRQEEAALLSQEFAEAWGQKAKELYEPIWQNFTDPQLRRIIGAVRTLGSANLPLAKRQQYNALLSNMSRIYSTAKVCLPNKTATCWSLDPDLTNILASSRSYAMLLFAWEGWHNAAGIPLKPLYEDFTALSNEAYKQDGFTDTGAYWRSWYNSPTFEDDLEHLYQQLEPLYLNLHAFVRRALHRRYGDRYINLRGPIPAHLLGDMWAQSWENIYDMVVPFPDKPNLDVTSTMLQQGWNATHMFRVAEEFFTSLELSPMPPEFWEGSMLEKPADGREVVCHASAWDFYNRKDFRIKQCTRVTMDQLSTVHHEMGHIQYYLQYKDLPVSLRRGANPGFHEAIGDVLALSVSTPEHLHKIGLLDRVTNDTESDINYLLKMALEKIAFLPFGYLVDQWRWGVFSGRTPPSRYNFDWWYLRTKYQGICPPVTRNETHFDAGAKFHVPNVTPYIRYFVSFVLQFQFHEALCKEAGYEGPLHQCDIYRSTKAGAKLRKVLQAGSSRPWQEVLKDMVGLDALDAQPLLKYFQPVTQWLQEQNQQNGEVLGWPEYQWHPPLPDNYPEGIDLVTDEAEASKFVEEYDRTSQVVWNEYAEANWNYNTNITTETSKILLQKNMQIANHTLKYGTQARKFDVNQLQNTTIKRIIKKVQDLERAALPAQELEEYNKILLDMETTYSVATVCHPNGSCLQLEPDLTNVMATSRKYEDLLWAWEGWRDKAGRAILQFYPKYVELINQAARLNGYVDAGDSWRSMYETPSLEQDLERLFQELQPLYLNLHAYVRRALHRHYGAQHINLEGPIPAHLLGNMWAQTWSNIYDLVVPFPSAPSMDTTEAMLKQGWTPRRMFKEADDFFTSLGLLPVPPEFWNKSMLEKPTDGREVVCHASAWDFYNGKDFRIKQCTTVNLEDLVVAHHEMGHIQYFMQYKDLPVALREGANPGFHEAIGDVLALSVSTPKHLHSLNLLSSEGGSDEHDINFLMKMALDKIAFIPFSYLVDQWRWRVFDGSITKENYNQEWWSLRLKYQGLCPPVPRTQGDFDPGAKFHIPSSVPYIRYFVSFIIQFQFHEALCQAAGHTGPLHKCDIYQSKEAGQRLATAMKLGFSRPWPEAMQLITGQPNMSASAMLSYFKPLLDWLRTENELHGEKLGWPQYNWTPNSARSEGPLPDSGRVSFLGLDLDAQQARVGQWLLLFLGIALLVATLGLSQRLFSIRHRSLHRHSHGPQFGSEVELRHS

Turning to “Lys UM: lysozyme, not pre-hydrolysed, nor in vitro digested; control in SHR studies”, the ACE inhibition is 0.1 in experiment [1] (conc. 0.019 mg/ml), 1.3 in experiment [1] (conc. 0.056 mg/ml), −4.7 in experiment [1] (conc. 0.167 mg/ml) and 2.6 in experiment [1] (conc. 0.500 mg/ml). Moreover, the “maximal reduction in SBP” value with SHR rats is “approx. 15%”. Besides, the “maximal decrease (inhibition) of plasma ACE activity from baseline” value with plasma ACE activity was “approx. 10%”.

For the substance “OM-UM: ovomucin, not pre-hydrolysed, nor in vitro digested”, the ACE inhibition was −0.4 in experiment [1] (conc. 0.019 mg/ml), 5.2 in experiment [1] (conc. 0.056 mg/ml), 2.2 in experiment [1] (conc. 0.167 mg/ml) and 2.1 in experiment [1] (conc. 0.500 mg/ml).
